Series [1] deals with HPPD polypeptides (wild-type SEQ ID NO:1 and mutants). Here is the method: For the generation of crude HPPD polypeptide extract in micro titer plates (MTP) for the determination of residual activity in inhibition assays, cells were grown in 40 or 150 μl LB medium containing 1% Glucose (Merck, Darmstadt, Germany) and 100 μg/ml ampicillin in a standard 96 well plate (Thermo Fisher Scientific, Waltham, USA) incubated for about 18 h in a humidity incubator at 37° C.
30 μl of this starter culture were added to 600 μl LB medium containing 100 μg/ml ampicillin and 150 mM Hepes (Merck, Darmstadt, Germany) as inoculum for the expression culture in 96 well plates (2 ml deep wells; HJ Bioanalytik, Erkelenz, Germany) The plates were sealed by an aluminium foil, and cells were incubated for 5 h at 37° C. on a plate shaker at 750 rpm. The expression was induced by addition of IPTG in a final concentration of 1 mM followed by further sealed incubation for about 18 h at 30° C. on a plate shaker at 750 rpm.
Cells were harvested by centrifugation at 4° C., 2500 g for 15 min discarding the supernatant. Cell pellets were stored at −80° C. and lysed in 250 μl 1× BugBuster® (Merck, Darmstadt, Germany) in 140 mM Tris (pH 7.8), with 1:25000 diluted BNase® (Qiagen, Hilden, Germany) by incubation of the resuspended cells for 30 min at 4° C. and 1000 rpm. Lysates were clarified by centrifugation for 15 min at 4° C., 2500 g, and 150 μl supernatant were transferred in standard 96 well plate (Thermo Fisher Scientific, Waltham, USA) for subsequent testing in quadruplets.
The activity of HPPD polypeptides was determined in absence or presence of HPPD inhibitors using the coupled HPPD activity assay (FIG. 1).
For the determination of the residual activity, the apparent kinetic constant (kapp) of the determined substrate conversion was measured as kinetic changes in absorbance at 320 nm in a coupled assay, in that homogentisate (HGA) formed by HPPD from HPP is directly converted into the well absorbing molecule maleylacetoacetate (MAA) by a second enzyme homogentisate dioxygenase (HGD), applied in excess uniformly in all assays (see FIG. 1). The measurements were performed in 384 micro titer plates (Greiner Bio-One GmbH, Frickenhausen, Germany) by plate readers (Tecan infinite M1000 or M1000PRO, Tecan, Männedorf, Switzerland). The kcat/kM ratio of an enzymatic activity is proportional to the apparent kinetic constant kapp and is proportional to kcat/kM*[E] ([E]=enzyme concentration). […] As both kapp measurements in the presence and absence of inhibitor were performed by use of the identical enzyme sample, crude or purified, and thereby at the same enzyme concentration, the enzyme concentration eliminates from the calculation of residual activity and the ratio of both kapp directly indicates the change of kM due to the inhibition.

Series [2] concerns E. coli cells expressing an HPPD polypeptide. Nature of the series: Brown color bioassay in liquid culture, residual brown color formation (BCF), OD440 after 96 hours. Format: cell-based. As to conditions: for Control BCF OD440nm: brown color formation in absence of Cmpd. 1, culture supernatant after 96 hours, 5 mM HPP; for Residual BCF OD440nm [%]: brown color formation with Cmpd. 1 (1000 μM) relative to without, after 96 hours. The protocol: In an additional experiment, mutant HPPD polypeptides were analyzed using the principle of a colorimetric brown color assay (as, for example, described in U.S. Pat. No. 6,768,044). Bacterial cells expressing the HPPD polypeptides according to this invention were assayed in 96 well plate format (Nunc® 96 DeepWell™ plate, Sigma-Aldrich, St. Louis, USA) for HPPD polypeptides with improved HPPD inhibitor herbicide tolerance.
E. coli cells were grown in liquid LB medium (Carl Roth GmbH+Co. KG, Karlsruhe, Germany) containing the selection agent for the expression vector pSE420(RI)NX (WO2014/043435) and 5 mM para-hydroxyphenylpyruvate (HPP; Sigma-Aldrich, St. Louis, USA), in the presence of absence of the HPPD inhibitor herbicide e.g. Cmpd. 1 (1000 μM). An overnight culture of E. coli culture expressing one of the respective HPPD polypeptides according to this invention were adjusted to an OD600 of 0.3-0.5 in a final volume of 500 μL and incubated at 30 degree Celsius. Residual brown color formation was determined by measuring the brown color formation (BCF) in the presence and absence of Cmpd. […] Therefore, after 96 hours the culture was centrifuged and the supernatant of the culture was used to measure the optical density of the soluble brown pigment formation at 440 nm (OD440 nm).

Series [3] has as its system transgenic soybean T0 events. Briefly: Additional greenhouse trials of T0 soybean events, leaf damage score 0-100 as percentiles. Format: in vivo. Particulars: Cmpd. 1 300 g AI/ha, five days. An excerpt: In additional greenhouse trials, 21 to 94 independent T0 soybean events per construct containing an exemplary mutant HPPD polypeptide were sprayed with the HPPD inhibitor herbicide Cmpd. […] Five days after the application, the leaf damaged area due to the HPPD inhibitor herbicide is scored in a scale from 0 (no damage) to 100 (complete bleaching). Under those conditions, the wild-type plants were completely bleached and their damage scores were in the 95-100 range.
Table 9 presents the distribution of the HPPD inhibitor herbicide damage score data as percentile for exemplary mutant HPPD inhibitor herbicide tolerant polypeptides (SEQ ID NOs). The percentiles normalize ranks of the damage score from an individual plant in a population. […] The median is the 50th percentile. Half the values had higher damage scores; half had lower damage scores. […] The difference between the 75th and 25th percentile is called the interquartile range and a marker to quantify scattering in the population. All constructs had only one single cassette insertion in the soybean genome.
In Table 9, the constructs were ranked based on injury scores according to the 75th percentile, from smallest to highest score. All exemplary HPPD polypeptide variants are better in all percentile analyses than the prior art mutant HPPD polypeptide (WO2014/043435) corresponding to SEQ ID NO:2 in this invention. The scoring of the prior art mutant HPPD polypeptide (WO2014/043435) corresponding to SEQ ID NO:2 in this invention is listed in the bottom row of Table 9.

[4] abbreviates: in the presence of Cmpd. 1, 15 μM inhibitor, high substrate concentration, kapp normalized to kapp without inhibitor.
The mark [5] stands for this setting: in the presence of Cmpd. 1, 15 μM inhibitor, high substrate concentration, total change in signal normalized to no inhibitor.
Setting [6] is: in the presence of Cmpd. 2, 15 μM inhibitor, high substrate concentration, kapp normalized to kapp without inhibitor.
Setting [7] is: in the presence of Cmpd. 2, 15 μM inhibitor, high substrate concentration, total change in signal normalized to no inhibitor.
The mark [8] stands for this setting: in the presence of diketonitrile (DKN), 60 μM inhibitor, high substrate concentration, kapp normalized to kapp without inhibitor.
Setting [9] is: in the presence of diketonitrile (DKN), 60 μM inhibitor, high substrate concentration, total change in signal normalized to no inhibitor.
The mark [10] stands for this setting: in the presence of mesotrione (MST), 60 μM inhibitor, high substrate concentration, kapp normalized to kapp without inhibitor.
[11] abbreviates: in the presence of mesotrione (MST), 60 μM inhibitor, high substrate concentration, total change in signal normalized to no inhibitor.

Numbering of substitutions follows the chain as printed. Numbers in names are those of the source. Where two headings read alike, the source gives them in different places.

As to `Cc1nnc(NC(=O)c2ccc(C(F)(F)F)c(S(C)(=O)=O)c2C)o1` [Cmpd. 2, 2-methyl-N-(5-methyl-1,3,4-oxadiazol-2-yl)-3-(methylsulfonyl)-4-(trifluoromethyl)benzamide, reference compound], the Residual activity came to 39% in series [1] (setting [4]), 51% in series [1] (setting [6]), 86% in series [1] (setting [8]) and 71% in series [1] (setting [10]). For the same molecule, the Residual turnover in series [1] (setting [5]) amounted to 50%; in series [1] (setting [7]), 72%; in series [1] (setting [9]), 93%; in series [1] (setting [11]), 85%. Moreover, the “Control BCF OD440nm” value in series [2] was 2.68. In addition, the “Residual BCF OD440nm [%]” value in series [2] is recorded as 18%.

B1: 14 (protein)
chain: MADLYENPMGLMGFEFIEFASPTPGTLEPIFEIMGFTKVATHRSKNVHLYRQGEINLILNNEPNSIASYFAAEHGPSVCGMAFRVKDSQKAYNRALELGAQPIHIDTGPMELNLPAIKGIGGAPLYLIDRFGEGSSIYDIDFVYLEGVERNPVGAGLKVIDHLTHNVYRGRMVYWANFYEKLFNFREARYFDIKGEYTGLTSKAMSAPDGMIRIPLNEESSKGAGQIEEFLMQFNGEGIQHVAFLTDDLVKTWDALKKIGMRFMTAPPDTYYEMLEGRLPDHGEPVDQLQARGILLDGSSVEGDKRLLLQIFSETLMGPVFFEFIQRKGHDGFGPDSFKVLFESVERDQVRRGVLTAD
modifications: mutant HPPD polypeptide
As to B1, the Residual activity in series [1] (setting [4]) was determined as 44%; in series [1] (setting [6]), 82%; in series [1] (setting [8]), 91%; in series [1] (setting [10]), 70%. For the same molecule, the Residual turnover was 60% in series [1] (setting [5]), 92% in series [1] (setting [7]), “n.i” in series [1] (setting [9]) and 89% in series [1] (setting [11]). The “Control BCF OD440nm” value in series [2] came to 1.42. Besides, the “Residual BCF OD440nm [%]” value in series [2] was 63%.

B2: 102 (protein)
chain: B1 chain with M264L, P268R, T270E, T315R, H330D, D336H, S344Q, V345M
modifications: mutant HPPD polypeptide
In the case of B2, in series [2], the “Control BCF OD440nm” value was 2.47 and the “Residual BCF OD440nm [%]” value was found to be 26%.

B3: 106 (protein)
chain: B1 chain with M264L, P268G, T270E, D331P, S344Q, V345M
modifications: mutant HPPD polypeptide
Regarding B3, in series [2], the “Control BCF OD440nm” value worked out at 1.50 and the “Residual BCF OD440nm [%]” value is given as 73%.

B4: SEQ ID NO: 30: mutant HPPD polypeptide: P268S T270S E335P G336H N337S A340V I345K (protein)
chain: B1 chain with P268S, T270S, H330D, D336H, V345K
modifications: mutant HPPD polypeptide
notes: mutant HPPD polypeptide: P268S T270S E335P G336H N337S A340V I345K
For the molecule B4, in series [3] (75th minus 25th percentile), the “leaf damage score, Interquartile range” value was 5.0. Further, the “leaf damage score, 25th percentile” value in series [3] (scale 0 (no damage) to 100 (complete bleaching)) is 10.0. In series [3] (scale 0-100), the “leaf damage score, 75th percentile” value was 15.0; the “leaf damage score, 90th percentile” value is reported as 25.0; the “leaf damage score, Median” value was determined as 15.0.

B5: 99 (protein)
chain: B1 chain with P268G, T270E, H330D, F338V, V340R
modifications: mutant HPPD polypeptide
With B5, in series [2], the “Control BCF OD440nm” value was 1.52 and the “Residual BCF OD440nm [%]” value came to 87%.

B6: 19 (protein)
chain: B1 chain with M264R, P268G, T270E
modifications: mutant HPPD polypeptide
Turning to B6, the Residual activity in series [1] (setting [4]) is 68%; in series [1] (setting [6]), 92%; in series [1] (setting [8]), “n.i. (no inhibition was observed under the given conditions)”; in series [1] (setting [10]) it was 51%; in series [1] (kapp in presence of 50 μM Cmpd. 1, normalised to kapp without inhibitor, low substrate concentration), 67%. For the same molecule, the Residual turnover in series [1] (setting [5]) is reported as 79%; in series [1] (setting [7]), 93%; in series [1] (setting [9]), “n.i”; in series [1] (setting [11]) it was 78%; in series [1] (total change in signal in presence of 50 μM Cmpd. 1, normalised to that without inhibitor, low substrate concentration) it was 88%. The “Control BCF OD440nm” value in series [2] stood at 1.65. In series [2], the “Residual BCF OD440nm [%]” value came out at 60%.

B7: 97 (protein)
chain: B1 chain with P268G, T270R, D331S, V345K
modifications: mutant HPPD polypeptide
For the molecule B7, in series [2], the “Control BCF OD440nm” value came out at 1.54 and the “Residual BCF OD440nm [%]” value is reported as 49%.

B8: 107 (protein)
chain: B1 chain with R213K, P268G, T270E, H330D, D336H, F338V, V340R
modifications: mutant HPPD polypeptide
As for B8, in series [2], the “Control BCF OD440nm” value worked out at 1.38 and the “Residual BCF OD440nm [%]” value is 84%.

B9: 100 (protein)
chain: B1 chain with M264L, P268G, T270E, S344Q, V345M
modifications: mutant HPPD polypeptide
As for B9, in series [2], the “Control BCF OD440nm” value is on record as 2.48 and the “Residual BCF OD440nm [%]” value is given as 33%.

The values are drawn from patent publication US10597674B2, “HPPD variants and methods of use” (BASF Agricultural Solutions Seed, US LLC, priority 2015, dated 2020).
